Here are results for 3 molecules from US5834244.

Positions count from the first letter of the chain named.

The labels stand for the following.
B1: IV-32B (designed binder)
chain: VREVCSEQAEPGPCKALMKRWYFDVTEGKCAPFYYGGCYGNRNNFDTEEYCAAVCGSA
B2: IV-54C (designed binder)
chain: B1 chain with K15R, Y34V
B3: IV-49C (designed binder)
chain: B1 chain with K15R, Y34I

This test deals with rabbit TF-FVIIa in the PT assay (rabbit thromboplastin with rabbit plasma) (rabbit).
As to B1, the fold increase of clotting time over baseline, PT assay in rabbit plasma (fold increase over baseline at 50 µM) turned out to be 1.2.
The figure for B2 is 3.5.
The molecule B3 came in with a fold increase of clotting time over baseline, PT assay in rabbit plasma (fold increase over baseline at 50 µM) of 4.4.
